Results on two molecules are retold here after patent US9127040B2, “Regulation of sodium channels by PLUNC proteins” (The University of North Carolina at Chapel Hill, priority 2011, dated 2015).

Ends that are not written are not given here.

The target of assay [1] is T1, αENaC-eGFP and βENaC-mCherry (Homo sapiens, UniProt P37088+P51168).
T1 construct: expressed in transfected cells
The assay is described as follows: Acceptor-photobleaching FRET between fluorescently tagged ENaC subunits. The class given is cell-based. Conditions: one hour of exposure. An excerpt: Ai, cartoon of αENaC-eGFP and βENaC-mCherry under basal conditions (γENaC not shown). Aii We hypothesize that S18 binding to the extracellular loop of βENaC (1) induces a conformational change in ENaC which is reflected as altered intracellular FRET (2). This change may facilitate NEDD4-2-induced ubiquitination (3), leading to internalization of αβγENaC (4). […] In contrast, exposure to aprotinin had no effect. All n=8-10. C, Typical confocal images of HEK cells expressing αγENaC and βENaC-eGFP before and 1 h after 100 μM S18. Cell outlines are traced in white.
Since ENaC is regulated by NEDD4-2 binding to its C-termini, which leads to ubiquitination of its N-termini and internalization, we propose that S18 causes a conformational change in ENaC, leading to increased ubiquitination followed by internalization (FIG. 21A). As a first step towards understanding the mechanism of action of SPLUNC1, we performed FRET on fluorescently tagged ENaCs. […] Furthermore, βENaC-eGFP internalized upon S18 binding (FIG. 21C), consistent with our surface biotinylation data from oocytes.

The target in the next assay is T2, αENaC (Homo sapiens, UniProt P37088).
T2 sequence (P37088 1-669): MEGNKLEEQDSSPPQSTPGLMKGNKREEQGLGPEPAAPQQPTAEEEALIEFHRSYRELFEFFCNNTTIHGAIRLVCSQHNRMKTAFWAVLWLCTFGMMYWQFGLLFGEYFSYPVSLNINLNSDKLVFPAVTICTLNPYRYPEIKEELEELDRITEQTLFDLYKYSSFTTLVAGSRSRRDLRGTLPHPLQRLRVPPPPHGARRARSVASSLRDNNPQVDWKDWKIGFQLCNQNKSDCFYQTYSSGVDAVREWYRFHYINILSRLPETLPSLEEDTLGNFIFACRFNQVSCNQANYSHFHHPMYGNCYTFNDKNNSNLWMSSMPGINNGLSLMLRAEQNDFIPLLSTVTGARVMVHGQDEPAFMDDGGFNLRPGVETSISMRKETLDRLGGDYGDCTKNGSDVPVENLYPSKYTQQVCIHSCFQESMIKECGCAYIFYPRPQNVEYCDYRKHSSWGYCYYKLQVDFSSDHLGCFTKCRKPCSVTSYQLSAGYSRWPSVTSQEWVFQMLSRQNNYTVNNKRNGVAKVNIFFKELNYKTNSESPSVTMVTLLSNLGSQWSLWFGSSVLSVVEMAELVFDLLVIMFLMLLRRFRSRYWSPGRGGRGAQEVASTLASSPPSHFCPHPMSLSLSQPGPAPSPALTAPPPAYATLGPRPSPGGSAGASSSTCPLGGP
The assay is described as follows: Biotinylated peptide pull-down of ENaC subunits from HEK293T cells. Conditions: subunits individually expressed. More on the design: expressed in transfected cells; host or cells: HEK293T cells (lysate). It counts as binding. As to the method: HEK293T cells were transfected with double-tagged human ENaC subunits with HA and V5 epitopes at the N- and C-termini, respectively, in combination with wild-type untagged subunit cDNA. When all three ENaC subunits were expressed, 0.5 μg of each subunit were transfected per well. When expressed individually, 0.75 μg of the subunit were transfected per well. The transfected cells were lysed 24 h later using NP-40 buffer with 1× complete EDTA-free protease inhibitor (Roche, Basel, Switzerland). The lysate was centrifuged at 16,300×g for 15 minutes at 4° C. and the supernatant collected. Protein concentration was determined using the BCA assay and 500 μg of protein plus 0.25 mg peptide and 100 μL of neutravidin were added to a spin column and rotated end-over-end at 4° C. for 24 h (all ThermoFisher Scientific, Rockford, Ill., USA). Flow-through was collected by centrifugation at 1000×g for 30 s. […] The membrane was probed using 1:1000 anti-V5 antibody (Invitrogen, Carlsbad, Calif., USA) overnight at 4° C. in 3% fish gelatin in TBS-T. The blot was then incubated for 1 h at room temperature with an ECL sheep anti-mouse IgG secondary antibody and detected by ECL reagent (ThermoFisher Scientific, Waltham, Mass., USA) or by incubation with a goat anti-mouse IRDye secondary antibody and analyzed by an Odyssey infrared imaging system (LI-COR Biosciences, Lincoln, Nebr., USA).

The next assay concerns serine proteases. Put plainly: Endogenous protease activity (BGAR-MCA cleavage) on mucosal surface of human bronchial epithelial cultures. The class given is cell-based. As to the method:
(§1) For cell-free assays, reactions were carried out in 50 μl Ringer in a 96 well plate format with 100 μM BGAR-MCA. To measure endogenous protease activity in human bronchial epithelial cultures, 30 μl Ringer with 100 μM BGAR-MCA were placed directly onto the mucosal surfaces of human bronchial epithelial cultures grown on 12 mm T-clear inserts and the cultures were assayed in 12 well plates.

In the next assay the test system is NL HBECs. The assay is described as follows: ASL height by confocal microscopy in normal lung (NL) HBECs. The class given is cell-based, human. Conditions: SPLUNC1 shRNA knockdown, 50 ng/ml rSPLUNC1 added to ASL. As to the method: To label airway surface liquid, Ringer containing Texas Red-dextran (2 mg/ml; Invitrogen) was added to human bronchial epithelial culture mucosal surfaces. Perfluorocarbon was added mucosally to prevent evaporation of the airway surface liquid and the culture placed in a chamber containing 100 μl Ringer on the stage of a Leica SP5 confocal microscope with a 63× glycerol immersion objective. 5 points per culture were scanned and an average airway surface liquid height determined. For confocal microscopy human bronchial epithelial cultures were bathed serosally in a modified Ringer solution containing (mM): 116 NaCl, 10 NaHCO3, 5.1 KCl, 1.2 CaCl2, 1.2 MgCl2, 20 TES, 10 glucose, pH 7.4). At all other times, human bronchial epithelial cultures were maintained in a modified BEGM growth medium which contained 24 mM NaHCO3 gassed with 5% CO2.
To label the ASL, PBS containing 10 kDa Rhodamine dextran (0.2-2 mg/mL; Invitrogen, Carlsbad, Calif., USA) was added to HBEC mucosal surfaces as previously described (Tarran et al., Mol. Cell 8:149 (2001)). When added, peptides with or without 100 nM neutrophil elastase, 1 U/mL aprotinin, activated neutrophil supernatant (ANS) (Haynes et al., Am. J. Physiol. Heart Circ. Physiol. 294:H379 (2008)) or 10 μM sivelestat (Sigma-Aldrich, St Louis, Mo., USA) were added to the mucosal surface along with the Rhodamine dextran. Bumetanide (100 μM) was added to the serosal solution.

Another assay has as its system trypsin. Put plainly: Cell-free fluorogenic assay, trypsin cleavage of BGAR-MCA. Particulars: 50 ng/ml rSPLUNC1 or 2 U/ml aprotinin; 1.0 or 0.3 U/ml trypsin. It counts as biochemical. As to the method:
as §1

T1 sequence (P51168 whole entry, one chain of several): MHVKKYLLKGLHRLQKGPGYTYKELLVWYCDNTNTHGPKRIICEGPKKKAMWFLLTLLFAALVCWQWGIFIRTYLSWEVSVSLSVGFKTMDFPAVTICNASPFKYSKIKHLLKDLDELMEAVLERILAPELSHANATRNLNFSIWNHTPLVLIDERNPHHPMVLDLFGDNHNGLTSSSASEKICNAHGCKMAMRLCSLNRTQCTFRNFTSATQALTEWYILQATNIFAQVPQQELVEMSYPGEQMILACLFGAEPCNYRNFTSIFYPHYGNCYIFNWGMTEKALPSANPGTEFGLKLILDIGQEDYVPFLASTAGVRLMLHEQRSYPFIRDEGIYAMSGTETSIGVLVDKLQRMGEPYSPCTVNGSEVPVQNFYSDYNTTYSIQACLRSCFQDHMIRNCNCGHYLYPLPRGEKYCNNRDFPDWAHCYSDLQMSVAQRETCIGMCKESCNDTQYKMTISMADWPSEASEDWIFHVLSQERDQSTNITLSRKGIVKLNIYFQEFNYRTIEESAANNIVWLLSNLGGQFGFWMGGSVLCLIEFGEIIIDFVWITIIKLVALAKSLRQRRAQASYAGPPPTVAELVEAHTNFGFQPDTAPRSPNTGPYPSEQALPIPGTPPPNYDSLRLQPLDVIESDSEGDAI
T1 sequence (P51170 whole entry partner, one chain of several): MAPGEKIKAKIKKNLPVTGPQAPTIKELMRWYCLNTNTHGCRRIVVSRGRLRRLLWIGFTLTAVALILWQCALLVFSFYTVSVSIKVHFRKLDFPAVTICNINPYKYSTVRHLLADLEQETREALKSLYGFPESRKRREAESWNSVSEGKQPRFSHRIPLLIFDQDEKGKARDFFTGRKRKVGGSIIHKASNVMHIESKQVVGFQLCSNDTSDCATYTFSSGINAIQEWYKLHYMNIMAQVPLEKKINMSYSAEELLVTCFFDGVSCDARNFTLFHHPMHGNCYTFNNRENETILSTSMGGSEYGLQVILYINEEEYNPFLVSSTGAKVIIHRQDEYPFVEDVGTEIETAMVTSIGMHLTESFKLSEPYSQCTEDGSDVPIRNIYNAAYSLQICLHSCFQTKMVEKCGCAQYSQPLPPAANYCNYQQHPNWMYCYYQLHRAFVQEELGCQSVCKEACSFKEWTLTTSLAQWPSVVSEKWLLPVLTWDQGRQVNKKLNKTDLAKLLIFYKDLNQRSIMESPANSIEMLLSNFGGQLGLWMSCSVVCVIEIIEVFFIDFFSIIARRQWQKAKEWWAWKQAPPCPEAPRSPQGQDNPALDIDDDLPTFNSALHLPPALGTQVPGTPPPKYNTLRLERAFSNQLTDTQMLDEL

Turning to GGLPVPLDQTLPLNVNPA [S18], the “FRET between αENaC-eGFP and βENaC-mCherry” value in assay [1] was “significantly diminished”. In addition, the “binding to αENaC (pull-down)” value at αENaC is on record as “without any detectable binding”.

B1: SPLUNC1: human SPLUNC1 (SEQ ID NO:1), 256 amino acid secreted PLUNC family protein; rSPLUNC1 is the purified V5/6His-tagged recombinant form (protein, listed as Homo sapiens)
chain: MFQTGGLIVFYGLLAQTMAQFGGLPVPLDQTLPLNVNPALPLSPTGLAGSLTNALSNGLLSGGLLGILENLPLLDILKPGGGTSGGLLGGLLGKVTSVIPGLNNIIDIKVTDPQLLELGLVQSPDGHRLYVTIPLGIKLQVNTPLVGASLLRLAVKLDITAEILAVRDKQERIHLVLGDCTHSPGSLQISLLDGLGPLPIQGLLDSLTGILNKVLPELVQGNVCPLVNEVLRGLDITLVHDIVNMLIHGLQFVIKV
modifications: V5/6His tag in recombinant form
notes: rSPLUNC1 is the purified V5/6His-tagged recombinant form
Regarding B1, the “BGAR-MCA cleavage on human bronchial epithelial mucosal surfaces” value in the assay on serine proteases was “no significant affect”. The entries for the “regulation of airway surface liquid height in cultures lacking SPLUNC1” value in the assay with NL HBECs and in the assay with NL HBECs (listed as recombinant SPLUNC1) were “restored” and “sufficient to restore ASL volume regulation”, respectively. The “inhibition of trypsin cleavage of fluorogenic substrate BGAR-MCA” value in the assay with trypsin was approximately 10%.
